# B1: Hammerhead Ribozyme (parent)
# chain: ACCGGAUGUGCUUUCCGGUCUGAUGAGUCCGUGAGGACGAAACAG
# Variants of: B1
# Assay: self-cleavage, relative activity (ratio to wild type); higher = more cleavage; co-transcriptional
row,Variant,self-cleavage
1,A34C G45A,0.524
2,C3A C11A,0.754
3,A26G,0.379
4,A6U C29A,0.475
5,G31C A40C,0.564
6,G18A G35A,0.536
7,G4C U21C,0.363
8,U9A U19G,0.398
9,C15G A41G,0.431
10,A42G A44C,0.484
11,G10A U12C,1.38
12,G4U G45U,0.446
13,U19G G45U,0.389
14,U32C G35A,0.83
15,U24G C30U,0.996
16,U12C G18A,0.627
17,C15G C20U,0.453
18,A34C G35C,0.398
19,C2G U13C,0.4
20,U7A C43U,0.302
21,U14A C20A,0.44
22,U24C U32G,0.802
23,A1U U24C,0.726
24,U9G A44G,1.07

row,Variant,self-cleavage
1,U24G A40C,0.421
2,G8U U24C,0.829
3,A26C C30A,0.426
4,G4C C11A,0.67
5,A1G G31U,1.88
6,U12A G36U,0.596
7,A1C G36C,0.365
8,C11A G31C,1.12
9,C11A G31U,1.08
10,A23U C30U,0.402
11,C15A A42U,0.282
12,A6C U9C,0.486
13,G36U C38A,0.326
14,A26U U28A,0.464
15,U19G C30G,0.41
16,U13G A23U,0.405
17,G5A C11A,1.43
18,C11U U13G,1.25
19,U13G G33A,0.959
20,C2U A37C,0.782
21,G5A G36U,0.41
22,G5C A42C,0.356
23,A1U G36C,0.328
24,G8A A26C,0.577

row,Variant,self-cleavage
1,U7C G45A,0.653
2,A37U A41G,0.406
3,C3U G4U,0.302
4,A40C G45U,0.431
5,A42G C43G,0.308
6,U24C G31A,0.924
7,A37C A40G,0.354
8,U14C C16G,0.722
9,G5A U28A,0.364
10,G10U A41G,0.372
11,C3A G33C,0.741
12,C29U C43G,0.319
13,G5C G33C,0.58
14,C38U A44C,0.596
15,G8C C15G,0.469
16,C3U A23U,0.347
17,G8C C16G,0.511
18,C20U C38A,0.336
19,G33C A42G,0.346
20,A1U C30A,0.487
21,G4A A34U,0.49
22,G8C C20G,0.288
23,U14C G22C,0.294
24,U7A A41C,0.407

row,Variant,self-cleavage
1,C16G G36A,0.414
2,C20U G36U,0.359
3,A6G U14G,1.13
4,G4A G31A,0.641
5,A1G G5C,0.628
6,C3A G8C,0.467
7,G17U A23U,0.35
8,C30U G31U,1.01
9,G35A A44U,0.46
10,A37C A44G,0.77
11,G4A C15A,0.443
12,U19A C38G,0.365
13,C3U G22A,0.381
14,A1U U14G,0.692
15,G4U A26C,0.35
16,C16G G33U,1.09
17,C2U G27A,1.06
18,U19A C29U,0.376
19,G27U A34G,0.373
20,G5C A34G,0.74
21,C3G U24C,0.477
22,G4A U13G,0.616
23,U14G U28G,0.585
24,C16A G17C,0.386

row,Variant,self-cleavage
1,A23C U32C,0.509
2,G5U A40G,0.35
3,A26U C38U,0.783
4,C2A G5C,0.288
5,G4A U19G,0.238
6,U24A A26G,0.332
7,C3U G31U,1.17
8,A6U G35A,0.505
9,C11G C29U,1.28
10,C20A A37U,0.353
11,U32C A42C,0.316
12,U32C A42U,0.366
13,U7A A23C,0.434
14,A6U C30G,0.525
15,A23U C29G,0.345
16,A34G G45C,0.551
17,U24G G35U,0.907
18,C16U G22A,0.386
19,C3U U24C,0.956
20,A26U G31C,0.633
21,U13C G33C,0.889
22,G5A C38A,0.65
23,U21A U24G,0.516
24,A6G G25U,0.194

row,Variant,self-cleavage
1,C15G G31C,0.792
2,C11G G27U,0.527
3,G22A A40U,0.366
4,C30A G36C,0.525
5,G25U A40C,0.272
6,U9G U19C,0.329
7,A1C A41G,0.328
8,A1C A41C,0.372
9,U19G G39A,0.378
10,A1C G8C,0.432
11,G5A U13A,1.68
12,U13C A40C,0.725
13,G10U G27U,0.507
14,C2U C30G,0.876
15,C2A G45U,0.417
16,G22A G35A,0.336
17,C3U U7A,1.26
18,A34C G39U,0.404
19,A6U A34U,0.631
20,G5A A37G,0.773
21,U12A G31U,1.12
22,C16U U19G,0.359
23,A1C G35A,0.404
24,G5U A42G,0.352

row,Variant,self-cleavage
1,U13A A42U,0.339
2,A23U G31C,0.393
3,U7G G36C,0.557
4,G5A U14A,1.58
5,A26G G33A,0.401
6,U9G U28G,0.729
7,U7A G25A,0.32
8,G18C G25C,0.347
9,G17C A37U,0.359
10,C11A C16U,0.985
11,G33A C38G,0.854
12,U14G C29U,0.625
13,A1C C11A,0.36
14,U24A U28G,0.694
15,C20G G27C,0.252
16,G36A A44C,0.31
17,G33U A34C,0.895
18,A41G G45A,0.25
19,U7C C16U,1.06
20,U14C G25A,0.305
21,C15G A40C,0.326
22,C2U G25U,0.28
23,A1U G8U,0.728
24,G10A G27C,0.701

row,Variant,self-cleavage
1,U21G C38A,0.388
2,A23C C38U,0.316
3,C11U C20A,0.441
4,C29A G35U,0.727
5,G36U G39C,0.34
6,G35C G36C,0.425
7,C20U A37G,0.565
8,G33C A37U,0.565
9,U21A C29G,0.354
10,C3U A37G,0.799
11,C3U A37C,0.566
12,G4A G18C,0.333
13,U19A C43U,0.396
14,C15U G39U,0.37
15,G8C U28G,1.05
16,G4A A42G,0.341
17,U21C G22U,0.277
18,U19A G31U,0.402
19,G35C C38U,0.67
20,G10A C11U,1.38
21,G10A C11G,1.35
22,U13A G17A,1.16
23,G25C A40U,0.332
24,G27U G36C,0.304

row,Variant,self-cleavage
1,C15G G45U,0.421
2,G4U U13A,1.14
3,G5U U7A,0.87
4,G18A G39C,0.326
5,C29A C30U,0.41
6,C29A C30A,0.442
7,A23G C29G,0.26
8,G17A U21A,0.351
9,U13C A42U,0.327
10,U9A G25U,0.342
11,U24C C38A,0.676
12,C11U G45C,0.44
13,G4C U9G,0.573
14,G5C U9A,0.595
15,U32C A40G,0.406
16,C16G G45A,0.533
17,U24C G33A,1.36
18,A6U C20U,0.454
19,G25A C29G,0.347
20,G31A C38A,0.766
21,U21C G35U,0.727
22,U9G G39C,0.33
23,G33A G45A,0.794
24,A23G G35A,0.38

row,Variant,self-cleavage
1,C3A U28C,0.354
2,C16A A37U,0.616
3,U21C A23U,0.708
4,C16G A44G,1.18
5,U7A U24G,0.882
6,C29U A34G,0.657
7,C16A G27U,0.534
8,C15G C30U,0.722
9,U24G G33A,1.18
10,G4A G8U,0.696
11,A6U G27A,0.614
12,G8A G33A,0.9
13,G8C G33U,0.971
14,U7A G10U,1.44
15,C15A C30U,1.01
16,U24C A40C,0.47
17,C29U G39U,0.369
18,G17C U19C,0.332
19,C11G A37C,1.11
20,U19C G33U,0.792
21,U28A A40C,0.352
22,C15G G27C,0.427
23,G33C G45U,0.874
24,A1U C29G,0.448

row,Variant,self-cleavage
1,C30G A41U,0.266
2,A6C A42U,0.295
3,G33U G35A,0.774
4,G31C,0.96
5,G31A,1.03
6,U12A C29G,0.721
7,C16G G31C,0.823
8,C20U A26U,0.411
9,C16U C38G,0.717
10,C15A G17A,0.351
11,U12A A37G,0.71
12,A26C G45C,0.398
13,C15G G18C,0.353
14,A1U U19G,1.28
15,U32A A44G,1.41
16,G5C A26U,0.339
17,C3A A44C,0.418
18,G22C C43A,0.23
19,C16A U24C,1.33
20,C3A C29A,0.406
21,A26C A42C,0.305
22,U21A A34G,0.387
23,A26C C29A,0.241
24,G5U U32A,0.795

row,Variant,self-cleavage
1,C11G G22U,0.378
2,U32A A42U,0.373
3,G22U A40C,0.368
4,G17A U24A,0.704
5,U12G G35A,0.674
6,G17C G33A,0.564
7,A23U A41U,0.307
8,G8A A34U,0.89
9,U24G G45A,0.541
10,G4A C11G,0.539
11,G4A C11A,0.62
12,U19A C20G,0.31
13,U19C G36U,0.443
14,C3U C29G,0.594
15,C3A G36U,0.283
16,G8U G18A,0.684
17,A1C G18U,0.353
18,C16G A40C,0.372
19,G4C G27U,0.326
20,C20U C43G,0.278
21,C15G C29U,0.822
22,U32A C38G,0.733
23,U28G C29U,0.77
24,G4A U28G,0.341

row,Variant,self-cleavage
1,U7A C11A,1.55
2,U21C G36C,0.366
3,U7C G35A,0.732
4,U13A G45C,0.808
5,G10U A44U,0.686
6,U13A G39A,0.317
7,U13A G25A,0.326
8,G8A C43G,0.344
9,C3A G17C,0.708
10,C38U A42U,0.317
11,C38U A42C,0.396
12,U13C U14G,0.364
13,G22A A44G,0.672
14,U9C C30A,0.902
15,U13G G39U,0.299
16,U13G G39C,0.396
17,A26U G39A,0.366
18,U12A A41G,0.32
19,U12C U19A,0.388
20,U12C U19C,0.577
21,U7A C15G,0.987
22,U7G U9G,1.35
23,G31U A40G,0.382
24,G25A A40G,0.267

row,Variant,self-cleavage
1,C3G G27U,0.265
2,U7C U24G,0.742
3,U7C U24A,1.4
4,C15A G35A,0.453
5,U7C A26C,0.373
6,G8A U28G,1.16
7,U21G A42G,0.223
8,U28G G36A,0.573
9,C3A U21A,0.37
10,U12G G33A,1.02
11,U28A C38A,0.726
12,C3A A23G,0.296
13,C20G G36C,0.274
14,U21A G22C,0.31
15,U21A G22U,0.407
16,U24G G25U,0.338
17,A1C U13C,0.513
18,C30G G36U,0.697
19,G31U A37C,1.25
20,U13C C29A,0.789
21,A42U A44U,0.276
22,U14C A44C,0.489

# From the RNAGym collection of RNA variant scans (doi:10.7554/elife.80360)
